Experimental data from publication PMC2120665.

Target: anti-SKL-reactive polypeptides
Assay: co-IP

- percent of Pay32p present in the complex: 84.6%
B1: Pay32p (natural protein)
chain: MSFMRGGSECSTGRNPLSQFTKHTAEDRSLQHDRVAGPSGGRVGGMRSNTGEMSQQDREMMARFGAAGPEQSSFNYEQMRHELHNMGAQGGQIPQVPSQQGAANGGQWARDFGGQQTAPGAAPQDAKNWNAEFQRGGSPAEAMQQQGPGPMQGGMGMGGMPMYGMARPMYSGMSANMAPQFQPQQANARVVELDEQNWEEQFKQMDSAVGKGKEVEEQTAETATATETVTETETTTEDKPMDIKNMDFENIWKNLQVNVLDNMDEWLEETNSPAWERDFHEYTHNRPEFADYQFEENNQFMEHPDPFKIGVELMETGGRLSEAALAFEAAVQKNTEHAEAWGRLGACQAQNEKEDPAIRALERCIKLEPGNLSALMNLSVSYTNEGYENAAYATLERWLATKYPEVVDQARNQEPRLGNEDKFQLHSRVTELFIRAAQLSPDGANIDADVQVGLGVLFYGNEEYDKAIDCFNAAIAVRPDDALLWNRLGATLANSHRSEEAIDAYYKALELRPSFVRARYNLGVSCINIGCYKEAAQYLLGALSMHKVEGVQDDVLANQSTNLYDTLKRVFLGMDRRDLVAKVGNGMDVNQFRNEFEF
